Target: T1, POT1 (Homo sapiens, UniProt Q9NUX5 1-634)
T1 sequence: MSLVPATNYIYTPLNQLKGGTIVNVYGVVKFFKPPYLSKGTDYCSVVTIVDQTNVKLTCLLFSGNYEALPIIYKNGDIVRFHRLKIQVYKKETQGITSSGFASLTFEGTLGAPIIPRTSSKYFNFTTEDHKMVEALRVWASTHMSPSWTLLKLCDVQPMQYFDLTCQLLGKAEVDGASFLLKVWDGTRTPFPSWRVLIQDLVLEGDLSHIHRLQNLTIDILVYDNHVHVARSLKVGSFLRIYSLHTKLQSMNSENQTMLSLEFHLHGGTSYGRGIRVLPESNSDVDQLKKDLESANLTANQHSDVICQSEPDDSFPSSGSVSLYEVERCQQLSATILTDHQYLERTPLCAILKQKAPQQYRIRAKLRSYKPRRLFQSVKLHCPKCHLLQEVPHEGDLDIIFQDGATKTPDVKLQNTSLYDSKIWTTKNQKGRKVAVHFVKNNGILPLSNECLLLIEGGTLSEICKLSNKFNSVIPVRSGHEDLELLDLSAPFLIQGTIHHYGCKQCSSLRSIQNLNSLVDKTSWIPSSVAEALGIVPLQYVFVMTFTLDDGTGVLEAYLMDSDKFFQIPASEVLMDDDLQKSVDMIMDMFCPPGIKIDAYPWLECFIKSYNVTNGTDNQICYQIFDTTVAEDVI
Experiment: EMSA

B1: primer a5TT (ssDNA)
DNA: TTAGGGTTAGCGTTAGGGTT
Kd: 50 nM
